Columns and labels:
[1] = molecular target: SARS-CoV-2 spike (B.1.1.7, UK, Alpha) (SARS-CoV-2); assay: MSD V-PLEX ACE2 kit, sVNT, positive control; competitor ACE2 (NHP study)
[2] = molecular target: SARS-CoV-2 spike (B.1.351, South Africa, Beta) (SARS-CoV-2); assay: as above
[3] = molecular target: SARS-CoV-2 spike (P.1, Brazil, Gamma) (SARS-CoV-2); assay: as above
[4] = molecular target: SARS-CoV-2 spike (B.1.1.7, UK, Alpha) (SARS-CoV-2); assay: MSD V-PLEX ACE2 kit, sVNT, positive control; competitor ACE2 (mouse study)
[5] = molecular target: SARS-CoV-2 spike (B.1.351, South Africa, Beta) (SARS-CoV-2); assay: as above
[6] = molecular target: SARS-CoV-2 spike (P.1, Brazil, Gamma) (SARS-CoV-2); assay: as above

Measured: ACE2-binding percent inhibition

ACE2 Calibration Reagent (included in the MSD kit)
100%: all assays above

Reference: US20230219996A1
